For this assay, the target named is CPTX, biotinylated on a C-terminal Avitag (immobilised in SPR) (UniProt P23435). As to the kind of experiment: SPR. (Surface plasmon resonance follows binding to a sensor surface in real time, without labels.)

B1: mouse glutamate receptor A4 amino-terminal domain (domain or fragment)
chain: GAFPSSVQIGGLFIRNTDQEYTAFRLAIFLHNTSPNASEAPFNLVPHVDNIETANSFAVTNAFCSQYSRGVFAIFGLYDKRSVHTLTSFCSALHISLITPSFPTEGESQFVLQLRPSLRGALLSLLDHYEWNCFVFLYDTDRGYSILQAIMEKAGQNGWHVSAICVENFNDVSYRQLLEELDRRQEKKFVIDCEIERLQNILEQIVSVGKHVKGYHYIIANLGFKDISLERFIHGGANVTGFQLVDFNTPMVTKLMDRWKKLDQREYPGSETPPKYTSALTYDGVLVMAETFRSLRRQKIDISRRGNAGDCLANPAAPWGQGIDMERTLKQVRIQGLTGNVQFDHYGRRVNYTMDVFELKSTGPRKVGYWNDMDKLVLIQDAPTLGNDTAAIENRTVVVT
The term Kd denotes the concentration at which binding is half-saturated. B1 came in with a Kd of 4.5 µM.

These data come from publication PMC7116145.
